Sequences and labels used below:
B1: Twister Ribozyme (parent)
chain: AACACUGCCAAUGCCGGUCCCAAGCCCGGAUAAAAGUGGAGGGGGCGG

In the series the parent is B1. The experiment in a line: self-cleavage, relative activity (ratio to wild type); higher = more cleavage; co-transcriptional.
Take AACACGGCCAAUGCCGGUCCCAAGCCCGGAUAAAAGUGGAGGGCGCGG [U6G G44C]: the self-cleavage was determined as 0.234.

On to AACACGGCCAAUGCCGGUCCCAAGCCCGGAUAAAAGUGGAGGGAGCGG [U6G G44A], for which the self-cleavage is 0.229.

On to AACACUACCAAUGCCUGUCCCAAGCCCGGAUAAAAGUGGAGGGGGCGG [G7A G16U], for which the self-cleavage came to 0.161.

For AACACUACCAAUGCCAGUCCCAAGCCCGGAUAAAAGUGGAGGGGGCGG [G7A G16A], the self-cleavage turned out to be 0.226.

Regarding AACACUACCAAUGCCCGUCCCAAGCCCGGAUAAAAGUGGAGGGGGCGG [G7A G16C], the self-cleavage was determined as 0.084.

Consider AACACUCCCAAUGCCGGUCCCAAGCCCGGAUAAAAGUGGAGGGGGGGG [G7C C46G], for which the self-cleavage amounted to 0.0721.

Take AACACUCCCAAUGCCGGUCCCAAGCCCGGAUAAAAGUGGAGGGGGAGG [G7C C46A]: the self-cleavage came to 0.0371.

Take AACACUCCCAAUGCCGGUCCCAAGCCCGGAUAAAAGUGGAGGGGGUGG [G7C C46U]: the self-cleavage turned out to be 0.0589.

For the variant AACACGGCCAAUGCCGGGCCCAAGCCCGGAUAAAAGUGGAGGGGGCGG [U6G U18G], the self-cleavage was 0.0678.

Regarding AACACUCCCAAUGCCGGUCCCAAGUCCGGAUAAAAGUGGAGGGGGCGG [G7C C25U], the self-cleavage turned out to be 0.128.

As for AACACGGCCAAUGCCGGUCCCAAGCCCGGAGAAAAGUGGAGGGGGCGG [U6G U31G], the self-cleavage is 0.429.

In the case of AACACGGCCAAUGCCGGUCCCAAGCCCGGAUAAAAGUGGAGAGGGCGG [U6G G42A], the self-cleavage was found to be 0.0807.

Consider AACACUCACAAUGCCGGUCCCAAGCCCGGAUAAAAGUGGAGGGGGCGG [G7C C8A], for which the self-cleavage was determined as 0.0479.

Turning to AACACUACCAAUGCCGGUCCCAAGCCCGGAUAAACGUGGAGGGGGCGG [G7A A35C], the self-cleavage came to 0.493.

On to AACACGGCCAAUGCCGGUCCCAAGCCCGGAUAAAAGUGGAAGGGGCGG [U6G G41A], for which the self-cleavage turned out to be 0.156.

On to AACACGGCCAAUGCCGGUCCCAAGCCCGGAUAAAAGUGGAUGGGGCGG [U6G G41U], for which the self-cleavage is 0.129.

Consider AACACUCCCAAUGCCGGUCCCAAGCCCGGAUAAAAGUGGGGGGGGCGG [G7C A40G], for which the self-cleavage came to 0.0675.

AACACUACCAAUGCCGGUCCCAAGCCUGGAUAAAAGUGGAGGGGGCGG [G7A C27U]: the self-cleavage was found to be 0.11.

For AACACUACCAAUGCCGGUCCCAAGCCGGGAUAAAAGUGGAGGGGGCGG [G7A C27G], the self-cleavage is 0.0632.

For the variant AACACUACCAAUGCCGGUCCCAAGCCCGGUUAAAAGUGGAGGGGGCGG [G7A A30U], the self-cleavage came to 0.425.

As for AACACUACCAAUGCCGGUCCCAAGCCCGGCUAAAAGUGGAGGGGGCGG [G7A A30C], the self-cleavage stood at 0.108.

In the case of AACACUACCAAUGCCGGUCCCAAGCCCGGAUAAAAGUGGAGGUGGCGG [G7A G43U], the self-cleavage came out at 0.152.

As for AACACUCCCAAUGCCGGUCCCAGGCCCGGAUAAAAGUGGAGGGGGCGG [G7C A23G], the self-cleavage amounted to 0.13.

AACACUCCCAAUGCCGGUCCCACGCCCGGAUAAAAGUGGAGGGGGCGG [G7C A23C]: the self-cleavage was 0.0613.

As for AACACUACCAAUGCAGGUCCCAAGCCCGGAUAAAAGUGGAGGGGGCGG [G7A C15A], the self-cleavage was found to be 0.111.

As to AACACUACCAAUGCUGGUCCCAAGCCCGGAUAAAAGUGGAGGGGGCGG [G7A C15U], the self-cleavage is 0.377.

On to AACACUCCCAAUGCCGGUCACAAGCCCGGAUAAAAGUGGAGGGGGCGG [G7C C20A], for which the self-cleavage is 0.0744.

As to AACACUACCAAUGCCGGUCCCAAGUCCGGAUAAAAGUGGAGGGGGCGG [G7A C25U], the self-cleavage was 1.09.

On to AACACUCCCAAUGCCGGUCCCAAGCCCGGAUAAAGGUGGAGGGGGCGG [G7C A35G], for which the self-cleavage was determined as 0.0589.

Consider AACACUACCAAUGCCGGUCCCAAGCCCGGAUAAAAGUGGAGGGGGCGU [G7A G48U], for which the self-cleavage is 0.381.

As for AACACUACCAAUGCCGGUCCCAAGCCCGGAUAAAAGUGGAGGGGGCGC [G7A G48C], the self-cleavage stood at 0.457.

As to AACACUACCAAUGCCGGUCCCAAGCCCGGAUAAAAGUGGAGGGGGCGA [G7A G48A], the self-cleavage came out at 0.26.

With AACACUCCCAAUGCCGGUACCAAGCCCGGAUAAAAGUGGAGGGGGCGG [G7C C19A], the self-cleavage was 0.0521.

With AACACUCCCAAUGCCGGUUCCAAGCCCGGAUAAAAGUGGAGGGGGCGG [G7C C19U], the self-cleavage amounted to 0.0513.

Consider AACACUACCAAUGCCGGUCCCAAGCCCGGAUAAAAGUGGAGGGGGUGG [G7A C46U], for which the self-cleavage came to 0.579.

With AACACUACCAAUGCCGGUCCCAAGCCCGGAUAAAAGUGGAGGGGGGGG [G7A C46G], the self-cleavage stood at 0.414.

For AACACUCCAAAUGCCGGUCCCAAGCCCGGAUAAAAGUGGAGGGGGCGG [G7C C9A], the self-cleavage was 0.0747.

For AACACUACCAAUGCCGGUCCCAAGCCCGGAUCAAAGUGGAGGGGGCGG [G7A A32C], the self-cleavage is 0.38.

For the variant AACACUACCAAUGCCGGUCCCAAGCCCGGAUGAAAGUGGAGGGGGCGG [G7A A32G], the self-cleavage turned out to be 0.323.

For the variant AACACUACCAAUGCCGGUCCCAAGCCCGGAUUAAAGUGGAGGGGGCGG [G7A A32U], the self-cleavage worked out at 0.507.

AACACUACCAAUGCCGGUCCCAAGCCCGGAUAAAAGUGGACGGGGCGG [G7A G41C]: the self-cleavage was found to be 0.143.

Turning to AACACUACCAAUGCCGGUCCCAAGCCCGGAUAAAAGUGGAAGGGGCGG [G7A G41A], the self-cleavage was found to be 0.122.

As for AACACUCCCAAUGCCGGUCCCAAGCCCGGGUAAAAGUGGAGGGGGCGG [G7C A30G], the self-cleavage turned out to be 0.0729.

Regarding AACACGGCCAAUGCCGGUCCCAAGCCCGGAUAAAAGUGGAGGGGGCGU [U6G G48U], the self-cleavage was 0.308.

As to AACACUACCAAUGCCGGUCCCAAGCCCGGAAAAAAGUGGAGGGGGCGG [G7A U31A], the self-cleavage amounted to 0.599.

With AACACUACCAAUGCCGGUCCCAAGCCCGGAUAAAAGUGGGGGGGGCGG [G7A A40G], the self-cleavage came to 0.157.

AACACUCCCAAUGCCGGUCCCAAGCUCGGAUAAAAGUGGAGGGGGCGG [G7C C26U]: the self-cleavage is 0.0512.

Regarding AACACUACCAAUGCCGGUCCCAAGCCCGAAUAAAAGUGGAGGGGGCGG [G7A G29A], the self-cleavage worked out at 0.325.

AACACUCCCAAUGCUGGUCCCAAGCCCGGAUAAAAGUGGAGGGGGCGG [G7C C15U]: the self-cleavage was 0.0844.

As to AACACUCCCAGUGCCGGUCCCAAGCCCGGAUAAAAGUGGAGGGGGCGG [G7C A11G], the self-cleavage was 0.106.

In the case of AACACUACCAAUGCCGGUCCCAAGCCCAGAUAAAAGUGGAGGGGGCGG [G7A G28A], the self-cleavage stood at 0.215.

Consider AACACUACCAAUGCCGGUCCCAAGCCCCGAUAAAAGUGGAGGGGGCGG [G7A G28C], for which the self-cleavage was 0.227.

With AACACUACCAAUGCCGGUCCCAAGCCCGGAUAAAAUUGGAGGGGGCGG [G7A G36U], the self-cleavage came to 0.108.

Consider AACACUACCAAUGCCGGUCCCAAGCCCGGAUAAAACUGGAGGGGGCGG [G7A G36C], for which the self-cleavage is 0.113.
